B1: Peroxisome proliferator-activated receptor alpha (Homo sapiens), Q07869 (parent)
chain: MVDTESPLCPLSPLEAGDLESPLSEEFLQEMGNIQEISQSIGEDSSGSFGFTEYQYLGSCPGSDGSVITDTLSPASSPSSVTYPVVPGSVDESPSGALNIECRICGDKASGYHYGVHACEGCKGFFRRTIRLKLVYDKCDRSCKIQKKNRNKCQYCRFHKCLSVGMSHNAIRFGRMPRSEKAKLKAEILTCEHDIEDSETADLKSLAKRIYEAYLKNFNMNKVKARVILSGKASNNPPFVIHDMETLCMAEKTLVAKLVANGIQNKEAEVRIFHCCQCTSVETVTELTEFAKAIPGFANLDLNDQVTLLKYGVYEAIFAMLSSVMNKDGMLVAYGNGFITREFLKSLRKPFCDIMEPKFDFAMKFNALELDDSDISLFVAAIICCGDRPGLLNVGHIEKMQEGIVHVLRLHLQSNHPDDIFLFPKLLQKMADLRQLVTEHAQLVQIIKKTESDAALHPLLQEIYRDMY

Variants of: B1
Details: with ncor1_human NCOR1, O75376
Sequence of ncor1_human NCOR1, O75376 (O75376 whole entry): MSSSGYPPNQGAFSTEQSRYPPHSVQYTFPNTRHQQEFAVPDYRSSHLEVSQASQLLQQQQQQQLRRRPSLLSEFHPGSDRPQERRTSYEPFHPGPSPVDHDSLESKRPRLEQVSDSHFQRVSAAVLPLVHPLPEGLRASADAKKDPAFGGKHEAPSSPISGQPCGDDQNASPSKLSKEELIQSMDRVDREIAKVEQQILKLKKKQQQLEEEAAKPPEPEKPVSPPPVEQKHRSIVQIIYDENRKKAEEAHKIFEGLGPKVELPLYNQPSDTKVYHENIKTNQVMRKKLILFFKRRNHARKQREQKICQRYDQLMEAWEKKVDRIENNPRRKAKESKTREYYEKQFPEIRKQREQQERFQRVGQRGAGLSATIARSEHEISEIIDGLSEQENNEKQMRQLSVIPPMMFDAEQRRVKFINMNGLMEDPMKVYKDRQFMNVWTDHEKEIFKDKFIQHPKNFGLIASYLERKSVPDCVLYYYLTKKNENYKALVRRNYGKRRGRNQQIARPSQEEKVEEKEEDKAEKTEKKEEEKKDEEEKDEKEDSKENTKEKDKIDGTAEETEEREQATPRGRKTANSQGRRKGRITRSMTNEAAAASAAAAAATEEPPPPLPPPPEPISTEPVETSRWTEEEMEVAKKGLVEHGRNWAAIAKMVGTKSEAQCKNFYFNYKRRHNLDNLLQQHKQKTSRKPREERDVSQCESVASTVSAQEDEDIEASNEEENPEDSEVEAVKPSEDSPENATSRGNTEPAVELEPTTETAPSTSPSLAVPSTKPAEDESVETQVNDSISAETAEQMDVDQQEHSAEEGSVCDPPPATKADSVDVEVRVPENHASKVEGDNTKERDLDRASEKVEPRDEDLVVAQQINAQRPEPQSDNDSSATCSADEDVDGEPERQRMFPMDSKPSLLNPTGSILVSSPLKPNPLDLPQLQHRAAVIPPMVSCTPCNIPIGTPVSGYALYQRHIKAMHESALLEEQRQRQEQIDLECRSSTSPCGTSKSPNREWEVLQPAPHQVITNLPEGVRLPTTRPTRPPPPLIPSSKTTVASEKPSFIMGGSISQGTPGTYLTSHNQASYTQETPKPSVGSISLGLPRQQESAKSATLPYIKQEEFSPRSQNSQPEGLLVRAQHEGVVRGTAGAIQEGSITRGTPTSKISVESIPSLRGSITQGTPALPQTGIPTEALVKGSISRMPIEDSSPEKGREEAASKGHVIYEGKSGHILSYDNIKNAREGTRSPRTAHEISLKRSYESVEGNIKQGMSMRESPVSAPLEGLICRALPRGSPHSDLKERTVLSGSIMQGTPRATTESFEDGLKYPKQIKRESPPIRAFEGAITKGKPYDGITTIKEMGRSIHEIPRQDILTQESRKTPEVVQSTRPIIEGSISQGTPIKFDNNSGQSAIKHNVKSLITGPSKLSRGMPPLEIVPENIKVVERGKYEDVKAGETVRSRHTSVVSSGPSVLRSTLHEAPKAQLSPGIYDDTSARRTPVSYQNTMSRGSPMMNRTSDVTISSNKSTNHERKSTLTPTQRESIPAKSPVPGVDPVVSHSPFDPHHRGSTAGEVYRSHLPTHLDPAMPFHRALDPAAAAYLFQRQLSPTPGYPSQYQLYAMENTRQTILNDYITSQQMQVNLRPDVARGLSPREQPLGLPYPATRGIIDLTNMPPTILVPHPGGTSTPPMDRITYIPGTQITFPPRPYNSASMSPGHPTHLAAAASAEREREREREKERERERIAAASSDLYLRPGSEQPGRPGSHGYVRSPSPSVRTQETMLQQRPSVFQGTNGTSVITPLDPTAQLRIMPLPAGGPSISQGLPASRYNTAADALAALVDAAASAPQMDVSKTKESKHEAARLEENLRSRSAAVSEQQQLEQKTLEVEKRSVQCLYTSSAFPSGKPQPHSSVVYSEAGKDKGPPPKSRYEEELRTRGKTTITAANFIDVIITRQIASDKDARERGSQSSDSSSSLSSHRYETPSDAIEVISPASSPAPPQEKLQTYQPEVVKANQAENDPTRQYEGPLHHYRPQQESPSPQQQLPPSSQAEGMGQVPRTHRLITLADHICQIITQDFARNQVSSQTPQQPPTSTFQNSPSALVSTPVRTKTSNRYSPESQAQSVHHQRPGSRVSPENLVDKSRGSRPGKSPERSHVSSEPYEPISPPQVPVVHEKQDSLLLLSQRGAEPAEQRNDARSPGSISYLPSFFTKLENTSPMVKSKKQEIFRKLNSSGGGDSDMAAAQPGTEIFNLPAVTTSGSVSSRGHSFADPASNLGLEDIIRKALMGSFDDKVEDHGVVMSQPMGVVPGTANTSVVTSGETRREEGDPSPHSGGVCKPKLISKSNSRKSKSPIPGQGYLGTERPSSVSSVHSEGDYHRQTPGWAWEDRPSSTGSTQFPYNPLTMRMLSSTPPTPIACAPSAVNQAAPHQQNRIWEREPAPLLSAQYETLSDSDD

Variant	effect of a mutation on the interaction
MVDTESPLCPLSPLEAGDLESPLSEEFLQEMGNIQEISQSIGEDSSGSFGFTEYQYLGSCPGSDGSVITDTLSPASSPSSVTYPVVPGSVDESPSGALNIECRICGDKASGYHYGVHACEGCKGFFRRTIRLKLVYDKCDRSCKIQKKNRNKCQYCRFHKCLSVGMSHNAIRFGRMPRSEKAKLRAEILTCEHDIEDSETADLKSLAKRIYEAYLKNFNMNKVKARVILSGKASNNPPFVIHDMETLCMAEKTLVAKLVANGIQNKEAEVRIFHCCQCTSVETVTELTEFAKAIPGFANLDLNDQVTLLKYGVYEAIFAMLSSVMNKDGMLVAYGNGFITREFLKSLRKPFCDIMEPKFDFAMKFNALELDDSDISLFVAAIICCGDRPGLLNVGHIEKMQEGIVHVLRLHLQSNHPDDIFLFPKLLQKMADLRQLVTEHAQLVQIIKKTESDAALHPLLQEIYRDMY [K185R]	decreasing interaction

Reference: IntAct's records for PubMed 19955185
